Results from patent US11278600B2, “Human alpha-galactosidase variants” (Codexis, Inc., priority 2014, dated 2022).
Positions count from the first letter of the chain named.

B1: 592 (protein)
chain: LDNGLARTPTMGWLHWERFMCNLDCQEEPDSCISEKLFMEMAERMVSEGWKDAGYEYLCIDDCWMAPQRDSEGRLQADPQRFPHGIRQLANHVHSKGLKLGIYADVGNKTCAGFPGSFGYYDIDAQTFADWGVDLLKFDGCYCDSLENLADGYKHMSLALNRTGRSIVYSCEWPLYMWPFQKPNYTEIVQYCNHWRNFADIDDSWASIKSILDWTSRNQERIVDVAGPGGWNDPDMLVIGNFGLSWDQQVTQMALWAIMAAPLFMSNDLRHISPQAKALLQDKDVIAINQDPLGKQGYQLRKGDNFEVWERPLSGDAWAVAIINRQEIGGPRSYTIPVASLGKGVACNPACFITQLLPVKRQLGFYNWTSRLKSHINPTGTVLLQLENTMQMSLKDLL
modifications: Synthetic Polypeptide sequence of Variant No. 592 of mature Human GLA
B2: 593 (protein)
chain: B1 chain with S95A, V189R
modifications: Synthetic Polypeptide sequence of Variant No. 593 of mature Human GLA
B3: 521 (protein)
chain: B1 chain with D52N, V189R
modifications: Synthetic Polypeptide sequence of Variant No. 521 of mature Human GLA
B4: 594 (protein)
chain: B1 chain with S95E, V189R
modifications: Synthetic Polypeptide sequence of Variant No. 594 of mature Human GLA
B5: 595 (protein)
chain: B1 chain with T186A, V189R
modifications: Synthetic Polypeptide sequence of Variant No. 595 of mature Human GLA
B6: 596 (protein)
chain: B1 chain with T186G, V189R
modifications: Synthetic Polypeptide sequence of Variant No. 596 of mature Human GLA
B7: 597 (protein)
chain: B1 chain with T186V, V189R
modifications: Synthetic Polypeptide sequence of Variant No. 597 of mature Human GLA
B8: 598 (protein)
chain: B1 chain with Y120H, V189R
modifications: Synthetic Polypeptide sequence of Variant No. 598 of mature Human GLA
B9: 599 (protein)
chain: B1 chain with Y120S, V189R
modifications: Synthetic Polypeptide sequence of Variant No. 599 of mature Human GLA
B10: 600 (protein)
chain: B1 chain with Y120S, V189R, L341F
modifications: Synthetic Polypeptide sequence of Variant No. 600 of mature Human GLA
B11: 601 (protein)
chain: B1 chain with M39C, V189R
modifications: Synthetic Polypeptide sequence of Variant No. 601 of mature Human GLA
B12: 602 (protein)
chain: B1 chain with M39E, V189R
modifications: Synthetic Polypeptide sequence of Variant No. 602 of mature Human GLA
B13: 603 (protein)
chain: B1 chain with M39R, V189R
modifications: Synthetic Polypeptide sequence of Variant No. 603 of mature Human GLA
B14: 522 (protein)
chain: B1 chain with E56K, V189R
modifications: Synthetic Polypeptide sequence of Variant No. 522 of mature Human GLA
B15: 604 (protein)
chain: B1 chain with M39V, V189R
modifications: Synthetic Polypeptide sequence of Variant No. 604 of mature Human GLA
B16: 605 (protein)
chain: B1 chain with T10P, V189R
modifications: Synthetic Polypeptide sequence of Variant No. 605 of mature Human GLA

Experiment: HTP-analysis of yeast culture supernatants, no challenge (MUGal hydrolysis)
Format: biochemical
Details: activity of the variant/activity of Rd3BB (SEQ ID NO: 13)
Method in brief: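 GLA variants expressed in yeast INVSc1, secreted into SD-Ura broth over 66-84 h at 30° C; clarified supernatants tested without challenge. Supernatant mixed with McIlvaine buffer pH 4.8 and 2 mM MUGal (citrate/KCl, pH 4.6), 37° C for 30-180 min, carbonate-quenched, fluorescence Ex 355/Em 448 nm.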

Row | Molecule | Relative Activity of GLA Variants After No Challenge (NC)
1 | B1 | + (+ = 1.5 to 5 relative activity over Rd3BB (SEQ ID NO: 13))
2 | B2 | + (+ = 1.5 to 5 relative activity over Rd3BB (SEQ ID NO: 13))
3 | B3 | + (+ = 1.5 to 5 relative activity over Rd3BB (SEQ ID NO: 13))
4 | B4 | + (+ = 1.5 to 5 relative activity over Rd3BB (SEQ ID NO: 13))
5 | B5 | + (+ = 1.5 to 5 relative activity over Rd3BB (SEQ ID NO: 13))
6 | B6 | + (+ = 1.5 to 5 relative activity over Rd3BB (SEQ ID NO: 13))
7 | B7 | + (+ = 1.5 to 5 relative activity over Rd3BB (SEQ ID NO: 13))
8 | B8 | + (+ = 1.5 to 5 relative activity over Rd3BB (SEQ ID NO: 13))
9 | B9 | + (+ = 1.5 to 5 relative activity over Rd3BB (SEQ ID NO: 13))
10 | B10 | + (+ = 1.5 to 5 relative activity over Rd3BB (SEQ ID NO: 13))
11 | B11 | − (− = <1.5 relative activity to Rd3BB (SEQ ID NO: 13))
12 | B12 | + (+ = 1.5 to 5 relative activity over Rd3BB (SEQ ID NO: 13))
13 | B13 | + (+ = 1.5 to 5 relative activity over Rd3BB (SEQ ID NO: 13))
14 | B14 | + (+ = 1.5 to 5 relative activity over Rd3BB (SEQ ID NO: 13))
15 | B15 | + (+ = 1.5 to 5 relative activity over Rd3BB (SEQ ID NO: 13))
16 | B16 | + (+ = 1.5 to 5 relative activity over Rd3BB (SEQ ID NO: 13))

Experiment: HTP-analysis of supernatants pretreated with acid (MUGal hydrolysis)
Format: biochemical
Details: activity of the variant/activity of Rd3BB (SEQ ID NO: 13); challenge at pH 3.7
Method in brief: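 Yeast INVSc1 supernatant, GLA variants; acid challenge: McIlvaine pH 3.3-4.3, 37° C., 1-3 h. Assay: MUGal in McIlvaine pH 4.8 plus citrate pH 4.3, 37° C., 30-180 min, Na2CO3 stop, Ex 355/Em 448 nm.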

Row | Molecule | Relative Activity of GLA Variants After Challenge at pH 3.7
17 | B1 | + (+ = 1.5 to 5 relative activity over Rd3BB (SEQ ID NO: 13))
18 | B2 | + (+ = 1.5 to 5 relative activity over Rd3BB (SEQ ID NO: 13))
19 | B3 | + (+ = 1.5 to 5 relative activity over Rd3BB (SEQ ID NO: 13))
20 | B4 | + (+ = 1.5 to 5 relative activity over Rd3BB (SEQ ID NO: 13))
21 | B5 | + (+ = 1.5 to 5 relative activity over Rd3BB (SEQ ID NO: 13))
22 | B6 | ++ (++ = >5 to 10 relative activity over Rd3BB (SEQ ID NO: 13))
23 | B7 | − (− = <1.5 relative activity to Rd3BB (SEQ ID NO: 13))
24 | B8 | + (+ = 1.5 to 5 relative activity over Rd3BB (SEQ ID NO: 13))
25 | B9 | + (+ = 1.5 to 5 relative activity over Rd3BB (SEQ ID NO: 13))
26 | B10 | +++ (+++ = >10 relative activity over Rd3BB (SEQ ID NO: 13))
27 | B11 | + (+ = 1.5 to 5 relative activity over Rd3BB (SEQ ID NO: 13))
28 | B12 | + (+ = 1.5 to 5 relative activity over Rd3BB (SEQ ID NO: 13))
29 | B13 | + (+ = 1.5 to 5 relative activity over Rd3BB (SEQ ID NO: 13))
30 | B14 | +++ (+++ = >10 relative activity over Rd3BB (SEQ ID NO: 13))
31 | B15 | + (+ = 1.5 to 5 relative activity over Rd3BB (SEQ ID NO: 13))
32 | B16 | +++ (+++ = >10 relative activity over Rd3BB (SEQ ID NO: 13))

Experiment: HTP-analysis of supernatants pretreated with base (MUGal hydrolysis)
Format: biochemical
Details: activity of the variant/activity of Rd3BB (SEQ ID NO: 13); challenge at pH 9.7
Method in brief: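 Supernatants from INVSc1 yeast expressing GLA variants (SD-Ura, 66-84 h, 30° C) were mixed with McIlvaine buffer pH 7.0-8.2 or 200 mM sodium bicarbonate pH 9.1-9.7 and held 1-18 h at 37° C. Residual activity was then measured on MUGal at pH 4.8/4.3, 37° C, 30-180 min, by fluorescence (Ex 355/Em 448 nm).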

Row | Molecule | Relative Activity of GLA Variants After Challenge at pH 9.7
33 | B1 | ++ (++ = >5 to 10 relative activity over Rd3BB (SEQ ID NO: 13))
34 | B2 | ++ (++ = >5 to 10 relative activity over Rd3BB (SEQ ID NO: 13))
35 | B3 | ++ (++ = >5 to 10 relative activity over Rd3BB (SEQ ID NO: 13))
36 | B4 | ++ (++ = >5 to 10 relative activity over Rd3BB (SEQ ID NO: 13))
37 | B5 | + (+ = 1.5 to 5 relative activity over Rd3BB (SEQ ID NO: 13))
38 | B6 | ++ (++ = >5 to 10 relative activity over Rd3BB (SEQ ID NO: 13))
39 | B7 | + (+ = 1.5 to 5 relative activity over Rd3BB (SEQ ID NO: 13))
40 | B8 | ++ (++ = >5 to 10 relative activity over Rd3BB (SEQ ID NO: 13))
41 | B9 | ++ (++ = >5 to 10 relative activity over Rd3BB (SEQ ID NO: 13))
42 | B10 | + (+ = 1.5 to 5 relative activity over Rd3BB (SEQ ID NO: 13))
43 | B11 | + (+ = 1.5 to 5 relative activity over Rd3BB (SEQ ID NO: 13))
44 | B12 | ++ (++ = >5 to 10 relative activity over Rd3BB (SEQ ID NO: 13))
45 | B13 | + (+ = 1.5 to 5 relative activity over Rd3BB (SEQ ID NO: 13))
46 | B14 | ++ (++ = >5 to 10 relative activity over Rd3BB (SEQ ID NO: 13))
47 | B15 | ++ (++ = >5 to 10 relative activity over Rd3BB (SEQ ID NO: 13))
48 | B16 | ++ (++ = >5 to 10 relative activity over Rd3BB (SEQ ID NO: 13))
